Measurements as given in article PMC29063.

Target: GST-p35-C/EBPβ
Assay: pull-down

B1: Elk-1 (wild type), in vitro translated (natural protein)
chain: MDPSVTLWQFLLQLLREQGNGHIISWTSRDGGEFKLVDAEEVARLWGLRKNKTNMNYDKLSRALRYYYDKNIIRKVSGQKFVYKFVSYPEVAGCSTEDCPPQPEVSVTSTMPNVAPAAIHAAPGDTVSGKPGTPKGAGMAGPGGLARSSRNEYMRSGLYSTFTIQSLQPQPPPHPRPAVVLPSAAPAGAAAPPSGSRSTSPSPLEACLEAEEAGLPLQVILTPPEAPNLKSEELNVEPGLGRALPPEVKVEGPKEELEVAGERGFVPETTKAEPEVPPQEGVPARLPAVVMDTAGQAGGHAASSPEISQPQKGRKPRDLELPLSPSLLGGPGPERTPGSGSGSGLQAPGPALTPSLLPTHTLTPVLLTPSSLPPSIHFWSTLSPIAPRSPAKLSFQFPSSGSAQVHIPSISVDGLSTPVVLSPGPQKP
modifications: labeled with [35S] methionine
percent of input retained on the beads: 35 to 45%
